This note sets out measurements from the RNAGym collection of RNA variant scans (doi:10.1093/molbev/msab373).

B1: Azoarcus group I ribozyme (parent)
chain: GUGCCUUGCGCCGGGAAACCACGCAAGGGAUGGUGUCAAAUUCGGCGAAACCUAAGCGCCCGCCCGGGCGUAUGGCAACGCCGAGCCAAGCUUCGGCGCCUGCGCCGAUGAAGGUGUAGAGACUAGACGGCACCCACCUAAGGCAAACGCUAUGGUGAAGGCAUAGUCCAGGGAGUGGCGAAAGUCACACAAACCGG

The variants in the data set derive from B1. Description: reverse-splicing fitness (ratio to wild type); higher = more active; in vitro selection; Mg2+ level not given. Put shortly:
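An in vitro group I ribozyme library with randomized positions was T7-transcribed and gel-purified. In triplicate, 10 pmol RNA in EPPS pH 7.5 was reacted with 50 pmoles of a 30-nt RNA substrate for 1 h at 37 °C across several added MgCl2 levels (1–48 mM), then stopped with EDTA. Products were reverse transcribed from a substrate-complementary primer, PCR-amplified and sequenced (HiSeq 4000). Fitness is a variant's read proportion after selection over that before, normalised to wild type.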
Regarding GUGCCUUGCGCCGGGAAACCACGCAAGGGAUGGUGUCAAAUUCGGCGAAACCUAAGCGCCCGCCCGGGCGUAUGGCAACGCCGAGCCAAGCUUCGGCGCCUGCGCCGAUGCAGGUGUAGUGACUAGACGGCACCCACCUAAGGCCAACGGUAUGGUGAAGGCAUAGUCUAGGGAGAGGCGAAAGUCACACAAACCGG, the reverse-splicing fitness was 0.00402. GUGCCUUGCGCCGGGAAACCACGCAAGGGAUGGUGUCAAAUUCGGCGAAACCUAAGCGCCCGCCCGGGCGUAUGGCAACGCUGAGCCAAGCUUCGGCGCCUGCGCCGAUGAAGGUGUAGAGACUAGACGGCACCCACCUAAGGCGAACGCUAUGGUGAAGGCAUAGUCAAGGGAGAGGCGAAAGUCACACAAACCGG: the reverse-splicing fitness is 0.0178. As for GUGCCUUGCGCCGGGAAACCACGCAAGGGAUGGUGUCAAAUUCGGCGAAACCUAAGCGCCCGCCCGGGCGUAUGGCAACGCUGAGCCAAGCUUCGGCGCCUGCGCCGAUGGAGGUGUAGCGACUAGACGGCACCCACCUAAGGCGAACGGUAUGGUGAAGGCAUAGUCGAGGGAGAGGCGAAAGUCACACAAACCGG, the figure is 0.00909; as for GUGCCUUGCGCCGGGAAACCACGCAAGGGAUGGUGUCAAAUUCGGCGAAACCUAAGCGCCCGCCCGGGCGUAUGGCAACGCGGAGCCAAGCUUCGGCGCCUGCGCCGAUGUAGGUGUAGUGACUAGACGGCACCCACCUAAGGCCAACGCUAUGGUGAAGGCAUAGUCCAGGGAGCGGCGAAAGUCACACAAACCGG, 0.0125.

Take GUGCCUUGCGCCGGGAAACCACGCAAGGGAUGGUGUCAAAUUCGGCGAAACCUAAGCGCCCGCCCGGGCGUAUGGCAACGCAGAGCCAAGCUUCGGCGCCUGCGCCGAUGUAGGUGUAGUGACUAGACGGCACCCACCUAAGGCCAACGCUAUGGUGAAGGCAUAGUCUAGGGAGAGGCGAAAGUCACACAAACCGG: the reverse-splicing fitness came to 0.00334.

With GUGCCUUGCGCCGGGAAACCACGCAAGGGAUGGUGUCAAAUUCGGCGAAACCUAAGCGCCCGCCCGGGCGUAUGGCAACGCCGAGCCAAGCUUCGGCGCCUGCGCCGAUGAAGGUGUAGAGACUAGACGGCACCCACCUAAGGCGAACGAUAUGGUGAAGGCAUAGUCCAGGGAGGGGCGAAAGUCACACAAACCGG, the reverse-splicing fitness was 0.184. As for GUGCCUUGCGCCGGGAAACCACGCAAGGGAUGGUGUCAAAUUCGGCGAAACCUAAGCGCCCGCCCGGGCGUAUGGCAACGCAGAGCCAAGCUUCGGCGCCUGCGCCGAUGCAGGUGUAGCGACUAGACGGCACCCACCUAAGGCUAACGUUAUGGUGAAGGCAUAGUCCAGGGAGUGGCGAAAGUCACACAAACCGG, the figure is 0.0202.

With GUGCCUUGCGCCGGGAAACCACGCAAGGGAUGGUGUCAAAUUCGGCGAAACCUAAGCGCCCGCCCGGGCGUAUGGCAACGCCGAGCCAAGCUUCGGCGCCUGCGCCGAUGAAGGUGUAGCGACUAGACGGCACCCACCUAAGGCUAACGUUAUGGUGAAGGCAUAGUCCAGGGAGGGGCGAAAGUCACACAAACCGG, the reverse-splicing fitness was determined as 0.2.

Consider GUGCCUUGCGCCGGGAAACCACGCAAGGGAUGGUGUCAAAUUCGGCGAAACCUAAGCGCCCGCCCGGGCGUAUGGCAACGCGGAGCCAAGCUUCGGCGCCUGCGCCGAUGUAGGUGUAGAGACUAGACGGCACCCACCUAAGGCUAACGGUAUGGUGAAGGCAUAGUCGAGGGAGAGGCGAAAGUCACACAAACCGG, for which the reverse-splicing fitness came out at 0.0083. With GUGCCUUGCGCCGGGAAACCACGCAAGGGAUGGUGUCAAAUUCGGCGAAACCUAAGCGCCCGCCCGGGCGUAUGGCAACGCGGAGCCAAGCUUCGGCGCCUGCGCCGAUGUAGGUGUAGAGACUAGACGGCACCCACCUAAGGCGAACGUUAUGGUGAAGGCAUAGUCGAGGGAGCGGCGAAAGUCACACAAACCGG, the reverse-splicing fitness was 0.0191. Next, GUGCCUUGCGCCGGGAAACCACGCAAGGGAUGGUGUCAAAUUCGGCGAAACCUAAGCGCCCGCCCGGGCGUAUGGCAACGCUGAGCCAAGCUUCGGCGCCUGCGCCGAUGGAGGUGUAGGGACUAGACGGCACCCACCUAAGGCCAACGAUAUGGUGAAGGCAUAGUCAAGGGAGUGGCGAAAGUCACACAAACCGG: 0.00777; GUGCCUUGCGCCGGGAAACCACGCAAGGGAUGGUGUCAAAUUCGGCGAAACCUAAGCGCCCGCCCGGGCGUAUGGCAACGCGGAGCCAAGCUUCGGCGCCUGCGCCGAUGUAGGUGUAGCGACUAGACGGCACCCACCUAAGGCGAACGAUAUGGUGAAGGCAUAGUCCAGGGAGGGGCGAAAGUCACACAAACCGG: 0.0103.

Turning to GUGCCUUGCGCCGGGAAACCACGCAAGGGAUGGUGUCAAAUUCGGCGAAACCUAAGCGCCCGCCCGGGCGUAUGGCAACGCUGAGCCAAGCUUCGGCGCCUGCGCCGAUGCAGGUGUAGCGACUAGACGGCACCCACCUAAGGCGAACGAUAUGGUGAAGGCAUAGUCAAGGGAGGGGCGAAAGUCACACAAACCGG, the reverse-splicing fitness came out at 0.00718. GUGCCUUGCGCCGGGAAACCACGCAAGGGAUGGUGUCAAAUUCGGCGAAACCUAAGCGCCCGCCCGGGCGUAUGGCAACGCCGAGCCAAGCUUCGGCGCCUGCGCCGAUGAAGGUGUAGAGACUAGACGGCACCCACCUAAGGCGAACGAUAUGGUGAAGGCAUAGUCAAGGGAGCGGCGAAAGUCACACAAACCGG: the reverse-splicing fitness turned out to be 0.031. In the case of GUGCCUUGCGCCGGGAAACCACGCAAGGGAUGGUGUCAAAUUCGGCGAAACCUAAGCGCCCGCCCGGGCGUAUGGCAACGCAGAGCCAAGCUUCGGCGCCUGCGCCGAUGCAGGUGUAGUGACUAGACGGCACCCACCUAAGGCGAACGAUAUGGUGAAGGCAUAGUCCAGGGAGUGGCGAAAGUCACACAAACCGG, the reverse-splicing fitness came to 0.00897. As for GUGCCUUGCGCCGGGAAACCACGCAAGGGAUGGUGUCAAAUUCGGCGAAACCUAAGCGCCCGCCCGGGCGUAUGGCAACGCGGAGCCAAGCUUCGGCGCCUGCGCCGAUGCAGGUGUAGGGACUAGACGGCACCCACCUAAGGCUAACGAUAUGGUGAAGGCAUAGUCUAGGGAGGGGCGAAAGUCACACAAACCGG, the figure is 0.00547; as for GUGCCUUGCGCCGGGAAACCACGCAAGGGAUGGUGUCAAAUUCGGCGAAACCUAAGCGCCCGCCCGGGCGUAUGGCAACGCGGAGCCAAGCUUCGGCGCCUGCGCCGAUGAAGGUGUAGCGACUAGACGGCACCCACCUAAGGCAAACGGUAUGGUGAAGGCAUAGUCUAGGGAGCGGCGAAAGUCACACAAACCGG, 0.0109; as for GUGCCUUGCGCCGGGAAACCACGCAAGGGAUGGUGUCAAAUUCGGCGAAACCUAAGCGCCCGCCCGGGCGUAUGGCAACGCGGAGCCAAGCUUCGGCGCCUGCGCCGAUGAAGGUGUAGUGACUAGACGGCACCCACCUAAGGCUAACGGUAUGGUGAAGGCAUAGUCGAGGGAGAGGCGAAAGUCACACAAACCGG, 0.00237. Consider GUGCCUUGCGCCGGGAAACCACGCAAGGGAUGGUGUCAAAUUCGGCGAAACCUAAGCGCCCGCCCGGGCGUAUGGCAACGCGGAGCCAAGCUUCGGCGCCUGCGCCGAUGAAGGUGUAGAGACUAGACGGCACCCACCUAAGGCUAACGUUAUGGUGAAGGCAUAGUCGAGGGAGUGGCGAAAGUCACACAAACCGG, for which the reverse-splicing fitness was found to be 0.0103.

Regarding GUGCCUUGCGCCGGGAAACCACGCAAGGGAUGGUGUCAAAUUCGGCGAAACCUAAGCGCCCGCCCGGGCGUAUGGCAACGCUGAGCCAAGCUUCGGCGCCUGCGCCGAUGUAGGUGUAGAGACUAGACGGCACCCACCUAAGGCUAACGUUAUGGUGAAGGCAUAGUCCAGGGAGGGGCGAAAGUCACACAAACCGG, the reverse-splicing fitness was 0.0202. GUGCCUUGCGCCGGGAAACCACGCAAGGGAUGGUGUCAAAUUCGGCGAAACCUAAGCGCCCGCCCGGGCGUAUGGCAACGCUGAGCCAAGCUUCGGCGCCUGCGCCGAUGAAGGUGUAGGGACUAGACGGCACCCACCUAAGGCCAACGGUAUGGUGAAGGCAUAGUCUAGGGAGCGGCGAAAGUCACACAAACCGG: the reverse-splicing fitness stood at 0.0104. On to GUGCCUUGCGCCGGGAAACCACGCAAGGGAUGGUGUCAAAUUCGGCGAAACCUAAGCGCCCGCCCGGGCGUAUGGCAACGCGGAGCCAAGCUUCGGCGCCUGCGCCGAUGAAGGUGUAGGGACUAGACGGCACCCACCUAAGGCAAACGAUAUGGUGAAGGCAUAGUCAAGGGAGCGGCGAAAGUCACACAAACCGG, for which the reverse-splicing fitness amounted to 0.0244.

On to GUGCCUUGCGCCGGGAAACCACGCAAGGGAUGGUGUCAAAUUCGGCGAAACCUAAGCGCCCGCCCGGGCGUAUGGCAACGCAGAGCCAAGCUUCGGCGCCUGCGCCGAUGCAGGUGUAGUGACUAGACGGCACCCACCUAAGGCAAACGCUAUGGUGAAGGCAUAGUCUAGGGAGCGGCGAAAGUCACACAAACCGG, for which the reverse-splicing fitness was 0.00626. As for GUGCCUUGCGCCGGGAAACCACGCAAGGGAUGGUGUCAAAUUCGGCGAAACCUAAGCGCCCGCCCGGGCGUAUGGCAACGCUGAGCCAAGCUUCGGCGCCUGCGCCGAUGGAGGUGUAGUGACUAGACGGCACCCACCUAAGGCUAACGAUAUGGUGAAGGCAUAGUCGAGGGAGUGGCGAAAGUCACACAAACCGG, the figure is 0.00226; as for GUGCCUUGCGCCGGGAAACCACGCAAGGGAUGGUGUCAAAUUCGGCGAAACCUAAGCGCCCGCCCGGGCGUAUGGCAACGCGGAGCCAAGCUUCGGCGCCUGCGCCGAUGUAGGUGUAGAGACUAGACGGCACCCACCUAAGGCAAACGUUAUGGUGAAGGCAUAGUCAAGGGAGGGGCGAAAGUCACACAAACCGG, 0.00647.

As to GUGCCUUGCGCCGGGAAACCACGCAAGGGAUGGUGUCAAAUUCGGCGAAACCUAAGCGCCCGCCCGGGCGUAUGGCAACGCUGAGCCAAGCUUCGGCGCCUGCGCCGAUGUAGGUGUAGCGACUAGACGGCACCCACCUAAGGCGAACGGUAUGGUGAAGGCAUAGUCUAGGGAGGGGCGAAAGUCACACAAACCGG, the reverse-splicing fitness was determined as 0.00719. Next, GUGCCUUGCGCCGGGAAACCACGCAAGGGAUGGUGUCAAAUUCGGCGAAACCUAAGCGCCCGCCCGGGCGUAUGGCAACGCUGAGCCAAGCUUCGGCGCCUGCGCCGAUGAAGGUGUAGUGACUAGACGGCACCCACCUAAGGCAAACGCUAUGGUGAAGGCAUAGUCUAGGGAGUGGCGAAAGUCACACAAACCGG: 0.00737. In the case of GUGCCUUGCGCCGGGAAACCACGCAAGGGAUGGUGUCAAAUUCGGCGAAACCUAAGCGCCCGCCCGGGCGUAUGGCAACGCAGAGCCAAGCUUCGGCGCCUGCGCCGAUGAAGGUGUAGGGACUAGACGGCACCCACCUAAGGCUAACGCUAUGGUGAAGGCAUAGUCUAGGGAGCGGCGAAAGUCACACAAACCGG, the reverse-splicing fitness came out at 0.0169. GUGCCUUGCGCCGGGAAACCACGCAAGGGAUGGUGUCAAAUUCGGCGAAACCUAAGCGCCCGCCCGGGCGUAUGGCAACGCUGAGCCAAGCUUCGGCGCCUGCGCCGAUGUAGGUGUAGUGACUAGACGGCACCCACCUAAGGCCAACGGUAUGGUGAAGGCAUAGUCUAGGGAGAGGCGAAAGUCACACAAACCGG: the reverse-splicing fitness is 0.00255. Regarding GUGCCUUGCGCCGGGAAACCACGCAAGGGAUGGUGUCAAAUUCGGCGAAACCUAAGCGCCCGCCCGGGCGUAUGGCAACGCCGAGCCAAGCUUCGGCGCCUGCGCCGAUGUAGGUGUAGGGACUAGACGGCACCCACCUAAGGCUAACGGUAUGGUGAAGGCAUAGUCCAGGGAGAGGCGAAAGUCACACAAACCGG, the reverse-splicing fitness came to 0.00927.
